# Measured values: patent US20060003330A1, “Streptococcus pneumoniae pbp2x mini-protein and uses thereof” (COMMISSARIAT A L'ENERGIE ATOMIQUE CENTRE NATIONAL DE LA …, priority 2002, published 2006)
# B1: Mini-PBP2x: Modified recombinant protein derived from PBP2x of β-lactam-sensitive S. pneumoniae strain R6, with deletions in the n-PB domain replaced by Gly linkers (protein, listed as Streptococcus pneumoniae)
# chain: GSGAKRGTIYDRNGVPIAEDATSGGPNRSYPNGQFASSFIGGGMESSLNSILAGGGGDGKDVYTTISSPLQSFMETQMDAFQEKVKGKYMTATLVSAKTGEILATTQRPTFDADTKEGITEDFVWRDILYQSNYEPGSTMKVMMLAAAIDNNTFPGGEVFNSSELKIADATIRDWDVNEGLTGGRTMTFSQGFAHSSNVGMTLLEQKMGDATWLDYLNRFKFGVPTRFGLTDEYAGQLPADNIVNIAQSSFGQGISVTQTQMIRAFTAIANDGVMLEPKFISAIYDPNDQTARKSQKEIVGNPVSKDAASLTRTNMVLVGTDPVYGTMYNHSTGKPTVTVPGQNVALKSGTAQIADEKNGGYLVGLTDYIFSAVSMSPAENPDFILYVTVQQPEHYSGIQLGEFANPILERASAMKDSLNLQTTAKALEQVSQQSPYPMPSVKDISPGDLAEELRRNLVQPIVVGTGTKIKNSSAEEGKNLAPNQQVLILSDKAEEVPDMYGWTKETAETLAKWLNIELEFQGSGSTVQKQDVRANTAIKDIKKITLTLGD
# Assay: Solubility of purified mini-PBP2x (concentration without precipitating)
# Type: physicochemical
# Conditions: purified protein
molecule,measurement,value
B1,solubility (can be concentrated without precipitating),≥ 15 mg/mL
